# Measurements reported in paper PMC5610937 (Journal of molecular biology, 2017).
# What was measured:
# [1] = target: human ROR1 ectopically and stably expressed on mouse pre-B cell line 63-12 (Homo sapiens (Human)., UniProt Q01973); assay: flow cytometry on cells
# Fc-hROR2 protein = Fc-hROR2 protein (Homo sapiens (Human)., UniProt Q01974); assay: SPR
# [2] = target: mouse ROR2 extracellular domains displayed on HEK293F cells (Mus musculus (Mouse)., UniProt Q9Z138); assay: flow cytometry on cells
# [3] = target: human ROR2 on the Retrogenix HEK293 cell microarray (Homo sapiens (Human)., UniProt Q01974); assay: Retrogenix cell microarray
# mouse ROR2 extracellular domains displayed on HEK293F cells, sequence (Q9Z138 34-403): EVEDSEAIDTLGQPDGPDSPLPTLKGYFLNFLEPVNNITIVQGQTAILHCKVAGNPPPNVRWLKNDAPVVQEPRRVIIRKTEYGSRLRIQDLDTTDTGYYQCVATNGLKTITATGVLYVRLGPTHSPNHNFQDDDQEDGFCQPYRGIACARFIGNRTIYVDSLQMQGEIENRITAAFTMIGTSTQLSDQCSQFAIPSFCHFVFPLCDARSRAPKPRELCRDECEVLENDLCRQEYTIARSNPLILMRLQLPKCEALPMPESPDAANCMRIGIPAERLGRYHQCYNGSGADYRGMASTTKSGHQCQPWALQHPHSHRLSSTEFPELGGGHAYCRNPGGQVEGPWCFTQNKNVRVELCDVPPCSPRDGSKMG
binding result [1],Kd (Fc-hROR2 protein),binding result [2],binding result [3],Binder
no binding,43.3 nM,binds,–,"chimeric rabbit/human anti-human ROR2 Fab ERR2-TOP35 (Fab, V domains shown) VH: QSVKESEGGLFKPMDTLTLTCTVSGFSLNTYGVSWVRQAPGNGLEWIGAVGSSGATNYASWAKSRSTITRNTNENTVTLKMTSLTAADTATYFCARDGYYSSGWGPYFSIWGPGTLVTVSS VL: SFVLTQPASVQVNLGQTVSLTCTAETLRSSYASWYQQKPGQAPVLLIYRDTSRPSGVPDRFSGSSSGNTATLTISGAQAGDEADYYCATSDGSGSRYYVFGGGTQLTVT"
–,–,–,no binding (tested: 2 μg/mL),"XBR1-402 in chimeric rabbit/human IgG1 format (antibody, V domains shown) VH: QEQQKESGGGLFKPTDTLTLTCTASGFDISSYYMSWVRQAPGNGLEWIGAIGISGNAYYASWAKSRSTITRNTNLNTVTLKMTSLTAADTATYFCARDHPTYGMDLWGPGTLVTVSS VL: SYELTQLPSVSVSLGQTARITCEGNNIGSKAVHWYQQKPGLAPGLLIYDDDERPSGVPDRFSGSNSGDTATLTISGAQAGDEADYYCQVWDSSAYVFGGGTQLTVT"
